Where no end group is shown, it is not given here.

The values below come from US20260242478A1 (published 2026).

For test [1], the target named is T1, PSMA Fab (006 PSMA Fab) (biotinylated (site not given)).
T1 construct: also called Anti-PSMA Fab; anti-PSMA Fab
The test is described as follows: clonal phage ELISA; biotinylated PSMA Fab on neutravidin plate, blocking buffer alone; anti-M13 HRP detection.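 Note: crude clonal phage supernatants added without washing to wells pretreated with blocking buffer with or without PSMA antigen, short incubation, then washed before detecting bound phage.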 Background: An ELISA detects its analyte on a solid surface through an enzyme-linked reagent.

The target in test [2] is T1, PSMA Fab (006 PSMA Fab). Description: clonal phage ELISA; biotinylated PSMA Fab on neutravidin plate, wells pre-incubated with PSMA antigen as competitor; anti-M13 HRP detection.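 Note: crude clonal phage supernatants added to antigen-treated wells without a wash, incubated briefly, then bound phage read out via horse radish–conjugated anti-M13 antibody.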
Description: (§1) Clonal phage were harvested as crude supernatants and screened via standard ELISAs. […] Prior to the addition of clonal phage. wells were incubated with blocking buffer and PSMA antigen or blocking buffer alone. Without washing or aspirating, clonal phage supernatants were then added to the wells and incubated for a short time. Wells were then washed followed by detection of bound phage using a horse radish conjugated anti-M13 antibody.
In test [3] the target is T2, PSMA Fab.
T2 construct: also called Anti-PSMA Fab; 006 PSMA Fab
Description: phage binding ELISA; biotinylated PSMA Fab on neutravidin plate, clonal phage supernatant, anti-M13 HRP detection; column read as anti-PSMA Fab without PSMA antigen.
Description: as §1

Test [4] addresses T2, PSMA Fab. Description: phage binding ELISA; biotinylated PSMA Fab on neutravidin plate, clonal phage supernatant, anti-M13 HRP detection; column read as anti-PSMA Fab pre-incubated with PSMA antigen as competitor.
Description: as §1
In test [5] the target is T3, PSMA Fab (biotinylated (site not stated)).
T3 construct: Biotinylated PSMA Fab captured on neutravidin plates in the phage ELISA; also called Anti-PSMA Fab; 006 PSMA Fab
Description: phage ELISA, biotinylated PSMA Fab on neutravidin plate, anti-M13-HRP detection, blocking buffer alone.

Test [6] deals with T3, PSMA Fab. Description: phage ELISA, biotinylated PSMA Fab on neutravidin plate, anti-M13-HRP detection, competitor PSMA antigen pre-incubated.
Description: as §1

B1: Phage-2640 (peptide)
peptide: VPKWCTPEWMCIIH
modifications: cysteine pairing not given here; also: displayed on phage pIII, linker not given here
notes: Clonal phage of the Peptide-180 library, tested as crude phage supernatant; not shown: pIII filament protein of the bacteriophage
For B1, in test [1], the “Phage binding ELISA signal, Anti-PSMA Fab” value was determined as 0.958. The “Phage binding ELISA signal, Anti-PSMA Fab with PSMA antigen” value in test [2] came out at 0.0705.

B2: Phage-2639 (peptide)
peptide: VGNWCTPMWMCQAF
modifications: cysteine pairing not given here; also: displayed on phage pIII, linker not given here
notes: as for B1
For B2, the “Phage binding ELISA signal, Anti-PSMA Fab” value in test [1] was found to be 0.961. For the same molecule, the “Phage binding ELISA signal, Anti-PSMA Fab with PSMA antigen” value in test [2] is 0.0864.

B3: Phage-2635 (peptide)
peptide: DMKWCTPAWMCQSS
modifications: cysteine pairing not given here; also: displayed on phage pIII, linker not given here
notes: as for B1
For the molecule B3, the “Phage binding ELISA signal, Anti-PSMA Fab” value in test [1] worked out at 0.966. In test [2], the “Phage binding ELISA signal, Anti-PSMA Fab with PSMA antigen” value was 0.0701.
Regarding GMKWCTPEWMCQIV [Phage-2603], the “phage binding ELISA signal” value came to 1.03 in test [3] and 0.28 in test [4].

B4: Phage-2644 (peptide)
peptide: PERMCVPQWMCTVT
modifications: cysteine pairing not given here; also: displayed on phage pIII, linker not given here
notes: as for B1
For the molecule B4, in test [1], the “Phage binding ELISA signal, Anti-PSMA Fab” value turned out to be 0.956. In addition, the “Phage binding ELISA signal, Anti-PSMA Fab with PSMA antigen” value in test [2] stood at 0.107.

B5: Phage-2638 (peptide)
peptide: WAKWCTPVWMCQGI
modifications: cysteine pairing not given here; also: displayed on phage pIII, linker not given here
notes: as for B1
Regarding B5, the “Phage binding ELISA signal, Anti-PSMA Fab” value in test [1] stood at 0.961. Moreover, the “Phage binding ELISA signal, Anti-PSMA Fab with PSMA antigen” value in test [2] was 0.136.

B6: Phage-2645 (peptide)
peptide: FPKWCTPEWMCSLT
modifications: cysteine pairing not given here; also: displayed on phage pIII, linker not given here
notes: as for B1
Take B6: in test [1], the “Phage binding ELISA signal, Anti-PSMA Fab” value amounted to 0.955. For the same molecule, in test [2], the “Phage binding ELISA signal, Anti-PSMA Fab with PSMA antigen” value worked out at 0.0592.
With LQNWCVPAWMCELM [Phage-2651], in test [5], the “Phage binding ELISA signal, Anti-PSMA Fab” value amounted to 0.941. In test [6], the “Phage binding ELISA signal, Anti-PSMA Fab with PSMA antigen” value stood at 0.068.

B7: Phage-2641 (peptide)
peptide: AEKLCIPDWMCDVY
modifications: cysteine pairing not given here; also: displayed on phage pIII, linker not given here
notes: as for B1
In the case of B7, the “Phage binding ELISA signal, Anti-PSMA Fab” value in test [1] worked out at 0.957. Also, the “Phage binding ELISA signal, Anti-PSMA Fab with PSMA antigen” value in test [2] amounted to 0.0771.
Turning to ETKLCKPMWMCALL (cysteine pairing not given here; also: displayed on phage as pIII fusion) [Phage-2602], the entries for the “phage binding ELISA signal” value in test [3] and in test [4] were 1.03 and 0.126, respectively.

B8: Phage-2647 (peptide)
peptide: LVKWCIPDWMCSLS
modifications: cysteine pairing not given here; also: displayed on phage as pIII fusion, fusion junction and sequence not given here
notes: as for B1
B8: the “Phage binding ELISA signal, Anti-PSMA Fab” value in test [1] stood at 0.952. In test [2], the “Phage binding ELISA signal, Anti-PSMA Fab with PSMA antigen” value came out at 0.0865.

B9: Phage-2648 (peptide)
peptide: EYKWCTPIWMCQGN
modifications: cysteine pairing not given here; also: displayed on phage as pIII fusion, fusion junction and sequence not given here
notes: as for B1
Regarding B9, the “Phage binding ELISA signal, Anti-PSMA Fab” value in test [1] is 0.95. In addition, the “Phage binding ELISA signal, Anti-PSMA Fab with PSMA antigen” value in test [2] was found to be 0.0626.

B10: Phage-2634 (peptide)
peptide: TDKLCRPPWMCELM
modifications: cysteine pairing not given here; also: displayed on phage pIII, linker not given here
notes: as for B1
Regarding B10, the “Phage binding ELISA signal, Anti-PSMA Fab” value in test [1] turned out to be 0.966. The “Phage binding ELISA signal, Anti-PSMA Fab with PSMA antigen” value in test [2] was 0.065.
In the case of SVTWCIPPWMCELS [Phage-2600], the figures for the “phage binding ELISA signal” value in test [3] and in test [4] were 1.04 and 0.0673, respectively.

B11: Phage-2646 (peptide)
peptide: QPKWCTPDWMCTGI
modifications: cysteine pairing not given here; also: displayed on phage as pIII fusion, fusion junction and sequence not given here
notes: as for B1
As for B11, the “Phage binding ELISA signal, Anti-PSMA Fab” value in test [1] turned out to be 0.954. The “Phage binding ELISA signal, Anti-PSMA Fab with PSMA antigen” value in test [2] came to 0.105.

B12: Phage-2637 (peptide)
peptide: TVKWCTPPWMCEES
modifications: cysteine pairing not given here; also: displayed on phage pIII, linker not given here
notes: as for B1
In the case of B12, the “Phage binding ELISA signal, Anti-PSMA Fab” value in test [1] came out at 0.964. Further, the “Phage binding ELISA signal, Anti-PSMA Fab with PSMA antigen” value in test [2] came out at 0.0943.
Turning to IEKWCMPSWMCEWN [Phage-2601], the “phage binding ELISA signal” value amounted to 1.03 in test [3] and 0.0609 in test [4].

B13: Phage-2636 (peptide)
peptide: DDRWCIPTWMCFLD
modifications: cysteine pairing not given here; also: displayed on phage pIII, linker not given here
notes: as for B1
For B13, the “Phage binding ELISA signal, Anti-PSMA Fab” value in test [1] was 0.965. Moreover, the “Phage binding ELISA signal, Anti-PSMA Fab with PSMA antigen” value in test [2] is 0.0733.
Consider DVKWCIPPWMCPSF [Phage-2650], for which the “Phage binding ELISA signal, Anti-PSMA Fab” value in test [5] turned out to be 0.944. Further, the “Phage binding ELISA signal, Anti-PSMA Fab with PSMA antigen” value in test [6] came to 0.0771.

B14: Phage-2649 (peptide)
peptide: TWKWCTPAWMCSVM
modifications: cysteine pairing not given here; also: displayed on phage as pIII fusion, fusion junction and sequence not given here
notes: as for B1
For B14, the “Phage binding ELISA signal, Anti-PSMA Fab” value in test [1] amounted to 0.947. Moreover, the “Phage binding ELISA signal, Anti-PSMA Fab with PSMA antigen” value in test [2] turned out to be 0.113.

B15: Phage-2643 (peptide)
peptide: VEKLCKPAWMCNGQ
modifications: cysteine pairing not given here; also: displayed on phage pIII, linker not given here
notes: as for B1
Regarding B15, the “Phage binding ELISA signal, Anti-PSMA Fab” value in test [1] turned out to be 0.956. Further, the “Phage binding ELISA signal, Anti-PSMA Fab with PSMA antigen” value in test [2] came to 0.0808.

B16: Phage-2642 (peptide)
peptide: DLKWCIPSWMCTST
modifications: cysteine pairing not given here; also: displayed on phage pIII, linker not given here
notes: as for B1
Regarding B16, the “Phage binding ELISA signal, Anti-PSMA Fab” value in test [1] came out at 0.957. Moreover, the “Phage binding ELISA signal, Anti-PSMA Fab with PSMA antigen” value in test [2] turned out to be 0.0977.
